Positions count from the first letter of the chain named.
B1: V003 (antibody, V domains shown)
VH: EVQLVQSGAEVKKPGESLKISCLGSGYSFTSYWIGWVRQMPGKGLEWMGIIFPADSDTRYSPSFQGQVIISADKSISTAYLQWSSLKASDTAMYYCARLREFGDYYYYGMDVWGQGTTVTVSS
VL: DIQLTQSPSSLSASVGDRVTITCRASQGISSYLAWYQQKPGKAPKLLIYAASTLQSGVPSRFSGSGSGTDFTLTISSLQPEDFATYYCQQLNSYPDFGQGTKLEIK
notes: IgG; donor BRA13; source: recombinant monoclonal IgG, produced and purified as previously described
B2: V054 (antibody, V domains shown)
VH: QVQLVESGGGVVQPGRSLRLSCAASGFPFSSFGMHWVRQAPGKGLEWVAVISSDGSNKYYADSVKGRFTISRDNSKNTLYLQMNSLRAEDTAVYYCAKEFTYVVVTALWGTENFDIWGQGTMVTVSS
VL: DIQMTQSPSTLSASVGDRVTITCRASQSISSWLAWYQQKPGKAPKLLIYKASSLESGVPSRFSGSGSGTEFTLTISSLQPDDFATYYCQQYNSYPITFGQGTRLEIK
notes: IgG; donor BRA15; source: recombinant monoclonal IgG, produced and purified as previously described
B3: V045 (antibody, V domains shown)
VH: QVQLVQSGAEVKKPGASVKVSCKASTYTFTSYYIHWVRQAPGQGLEWMGIINPSGGSTSYAQNFQGRVTMTRDTSTSTVYMELSSLRSEDTAVYYCARGVLIPAAGGDFDYWGQGTLVTVSS
VL: QSALTQPRSVSGSPGQSVTISCTGTSSDVGGYKYVSWYQQHPGKAPKLMIYDVSKRPSGVPDRFSGSKSGNTASLTISGLQAEDEADYYCCSYAGSYSWVFGGGTKLTVL
notes: as for B2
B4: V055 (antibody, V domains shown)
VH: QVQLVQSGAEVKKPGSSVKVSCKASGGTFSSYIINWVRQAPGQGLEWMGRIIPILGIANYAQKFHGRVTITADESTSTAYMELSSLRSEDTAVYYCARGGPDPSDSNYAALLYYYYMDVWGKGTTVTVSS
VL: QSVLTQPPSVSAAPGQKVTISCSGSSSNIGSYYVSWYQKLPGTAPKLLIHENNKRPSGIPDRISGSKSGTSATLGITGLQTGDEADYYCGTWDSSLSDVVFGGGTKLTVL
notes: as for B2
B5: V037 (antibody, V domains shown)
VH: EVQLVESGGGLVQPGGSLRLSCAASEVIVSSNYMSWVRQAPGKGLEWVSVLYSGGSTFYADSVKGRFTISRDNSKNTLYLQMNSLRAEDTAVYYCARDLGPMGAFDIWGQGTMVTVSS
VL: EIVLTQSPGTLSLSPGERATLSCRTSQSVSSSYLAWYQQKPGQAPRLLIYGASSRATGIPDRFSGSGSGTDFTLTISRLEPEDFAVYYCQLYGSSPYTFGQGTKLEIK
notes: as for B2
B6: V042 (antibody, V domains shown)
VH: QLQLQESGPGLVKPSETLSLTCTVSGGSISSSTNYWGWIRQPPGKGLEWIGSIDYSGSTYYNPSLKSRVTMSVDTSKNQFSLKLSSVTATDTAMYYCARHVIDDSRGYYPAALDHWSQGTLVTVSS
VL: EIVLTQSPATLSLSPGERATLSCRASQSVNNYLAWYQQKPGQAPRLLIYDASNRATGVPARFSGSGSGTDFTLTISSLEPEDFAVYFCQQRSNWPPMYTFGQGTKLEIK
notes: as for B2
B7: V057 (antibody, V domains shown)
VH: EVQLVESGGGLVQPGRSLRLSCAASGFTFGDYAMHWVRQAPGKGLEWVSGISWNSGIIGQADSVKGRFTISRDNAKNSLYLQMNSLRVEDTALYYCAKGGGESVEVPADEKLDYWGQGTLVTVSS
VL: QSVLTQPPSVSGAPGQRVTISCTGSSSNIGAGYDVHWYQQLPGTAPKLLIYGNNNRPSGVPDRFSGSKSGTSASLAITGLQAEDEADYYCQSYDSSLSGSWVFGGGTKLTVL
notes: as for B2
B8: V053 (antibody, V domains shown)
VH: QVQLVQSGAEVKKPGASVKVSCKASGYTFTSYYMHWVRQAPGQGLEWMGIINPSAGSTTYAQKFQGRVTMTSDTSTSTVYMELSSLKSEDTAVYYCARDFVLVPASYGMDVWGQGTTVTVSS
VL: QSVLTQPASVSGSPGQSITISCTGTSSDVGSYNLVSWFQQHPGKAPKLMIYQVSKRPSGASNRFSGSKSGNTASLTISGLQAEDEADYYCCSYAGSSTVWVFGGGTKLTVL
notes: as for B2
B9: V048 (antibody, V domains shown)
VH: QVQLVQSGAEVKKPGASVKVSCKASGYTFTSYVISWVRQAPGQGLEWMGWISAYNGNTNYAQKLQGRVTMTTDTSTSTAYMELRSLRSDDTAVYYCARDVAGITMIVEEVIDAFDIWGQGTMVTVSS
VL: SYELTQPSSVSVSPGQTARITCSGDVLAKKYARWFQQKPGQAPVLVIYKDSERPSGIPERFSGSSSGTTVTLTISGAQVEDEADYYCFSAPDNNRVFGGGTKLTVL
notes: as for B2
B10: V004 (antibody, V domains shown)
VH: QVQLQESGPGLVKPSQTLSLTCTVSGGSISSGSYYWSWIRQPAGKGLEWIGRIYTSGSTNYNPSLKSRVTISVDTSKNQFSLKLSSVTAADTAVYYCARDTTDDYYVIWGQGTLVTVSS
VL: DIQMTQSPSTLSASVGDRVTITCRASQSIRSWLAWYQQKPGKAPKLLIYDASSLESGVPSRFSGSGSGTEFTLTISSLQPDDFATYYCQQYNTHFRTFGQGTKVEIK
notes: as for B1
B11: V050 (antibody, V domains shown)
VH: EVQLVESGGGLVKPGGSLRLSCAASGFSFSNAWMSWVRQAPGKGLEWVGRIKSKTDGGTTDYAAPVKGRFTISRDDSQNTLYLQMNSLKTEDTAVYYCITDRFRVHIRGYYGQGTLVTVSS
VL: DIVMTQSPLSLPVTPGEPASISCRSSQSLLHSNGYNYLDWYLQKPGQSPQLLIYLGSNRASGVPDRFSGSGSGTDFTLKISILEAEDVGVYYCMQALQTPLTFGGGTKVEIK
notes: as for B2
B12: V049 (antibody, V domains shown)
VH: QVQLVESGGGVVQPGRSLRLSCAASRFPFSNYGMHWVRQAPGKGLEWVAVISFDGNNKYYGDSVKGRLTISRDNSKNTLYLQVKSLRPEDTAVYYCAKDISTGLSLALFRSPDGEGMDVWGQGTTVTVSS
VL: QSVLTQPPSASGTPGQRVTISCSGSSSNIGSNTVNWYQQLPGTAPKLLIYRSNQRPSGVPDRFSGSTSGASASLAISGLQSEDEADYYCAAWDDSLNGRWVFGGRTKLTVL
notes: as for B2
B13: V032 (antibody, V domains shown)
VH: QVQLVESGGGVVQPGRSLRLSCAASGFTFSSYGMHWVRQAPGKGLEWVAVISYDGSNKYYADSVKGRFTISRDNSKNTLYLQMNSLRAEDTAVYYCAKVSGPYCSSTSCYTGYWDYWGQGTLVTVSS
VL: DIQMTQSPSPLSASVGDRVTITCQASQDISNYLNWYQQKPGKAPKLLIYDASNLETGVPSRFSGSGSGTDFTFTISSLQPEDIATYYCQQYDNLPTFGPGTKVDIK
notes: IgG; donor BRA14; source: recombinant monoclonal IgG, produced and purified as previously described
B14: V007 (antibody, V domains shown)
VH: QVQLVQSGAEVKKPGSSVKVSCKASGDTFSTYTISWVRQAPGQGLEWMGRIIPILGVGNYAQKFQGRVTITADKSTSTAYMELSSLRSEDTAVYYCAHTTPPGDAFDIWGQGTMVTVSS
VL: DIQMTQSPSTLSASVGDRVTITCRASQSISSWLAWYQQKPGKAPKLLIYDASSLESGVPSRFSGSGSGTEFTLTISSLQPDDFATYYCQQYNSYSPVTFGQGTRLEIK
notes: as for B1
B15: V056 (antibody, V domains shown)
VH: QVQLVESGGGVVQPGRSLRLSCAASGFPFSNYGMHWVRQAPGKGLEWVAVISYDGSNKYYADSVKGRFTISRDNSKNTLYLQMNSLRAEDTALYYCAKDSRPLPAAMSTYYYYGVDVWGQGTTVTVSS
VL: not shown
notes: as for B2
B16: V060 (antibody, V domains shown)
VH: B15 VH with Q39R, S56L, S85R, L93V, L103V, A105G, V115M
VL: not shown
notes: as for B2
B17: V033 (antibody, V domains shown)
VH: QVQLVQSGAEVKKPGASVKVSCKASGYTFTSYGISWVRQAPGQGLEWMGWISAYNGNTNYAQKLQGRVTMTTDTSTSTAYMELRSLRSDDTAVYYCARGRFCSSTSCYRAAPNYYYYYMDVWGKGTTVTVSS
VL: NFMLTQPHSVSESPGKTVTISCTRSSGSIASNYVQWYQQRPGSAPTTVIYEDNQRPSGVPDRFSGSIDSSSNSASLTISGLKTEDEADYYCQSYDSSNPYWVFGGGTKLTVL
notes: as for B13
B18: V039 (antibody, V domains shown)
VH: QVQLQESGPGLVKPSQTLSLTCTVSGGSISSGSYYWSWIRQPAGKGLEWIGRIYTSGSTNYNPSLKSRVTISVDTSKNQFSLKLSSVTAADTAVYYCARADYSDYDNYYFDYWGQGTLVTVSS
VL: B17 VL with T19A, Q35H, A44S, E51D, P99H, Y100N
notes: as for B2
B19: V044 (antibody, V domains shown)
VH: QVQLVQSGAEVKKPGASVKVSCKASGYTFTSYDINWVRQATGQGLEWMGWMNPNSGYAGYTQKFQGRITMTRNTSISTAYMELSSLRSEDTAVYFCARISSPTRLDPWGQGTLVTVSS
VL: NFMLTQPHSVSESPGKTVTISCSRSRGSIASSFVQWYQQRPGSSPTTVIYDDNQRPSGVPDRFSGSIDSSSNSASLTISGLKTEDEADYYCQSYDSISWVFGGGTKLTVL
notes: as for B2
B20: V051 (antibody, V domains shown)
VH: QVQLVESGGGVVQPGRSLRLSCEASGFTFSTYAMHWVRQAPGKGLEWVAVISYDGNNKYYADSVKGRLTVSRDNSKNTLYLQMNSLRAEDTAEYYCARDDGGYCSSLSCPMDVWGQGTTVTVSS
VL: SYELTQPPSVSVAPGKTARITCGGNSIGSKSVHWYQQRPGQAPVLVIYYDSDRPSGIPERFSGSNSGNTATLTISRVEAGDEADYYCQVWDSTLVFGGGTKLTVL
notes: as for B2
B21: V043 (antibody, V domains shown)
VH: QLQLQESGPGLVKPSETLSLTCTVSGGSISSNNYYWGWIRQPPGKGLECIGTIYYSGNTYYNPSLKSRVTISVDTSKNQFSLKLGSVTAADTAVYYCARQQWLRDAFHIWGQGTMVTVSS
VL: NFMLTQPHSVSESPGKTVTISCTGSSGSIASNYVQWYQQRPGSAPTIVIYEDNQRPSGVPDRFSGSIDSSSNSASLTISGLKTEDEADYYCQSYDSNIHVVFGGGTKLTVL
notes: as for B2
B22: V061 (antibody, V domains shown)
VH: QVQLVQSGAEVKKPGTSVKVSCKASGYTFKNYGISWVRQAPGQGLEWMGWISAHNGNTNYAQRVQGRVTMTTDTSTSTAYMELRSLRSEDTAVYYCGRESGVASHPGDLDYWGQGTLVTVSS
VL: SYELTQPPSVSVSPGQTARITCSGDALPRQYAYWYQQKPGQAPVLLIYKDSERPSGIPERFSGSSSGTTVTLTISGVQAEDEADYYCQSADSSVVFGGGAKLTVL
notes: as for B2
B23: V046 (antibody, V domains shown)
VH: EVQLVESGGGLVQPGRSLRLSCAASGFTFEDYAMHWVRQAPGKGLEWVSGVSWNSGTIGYADSVKGRFIISRDNAKNSLYLQMNSLRAEDTALYYCANLGPTYYDFSRPTPMDVWGKGTTVTVSS
VL: QSALTQPASVSGSPGQSITISCTGTSSDVGGYNYVSWYQQHPGKAPKLIIYDVSNRPSGVSNRFSGSKSGNTASLTISGLQAEDEADYYCSSYTSSSTWVFGGGTKLTVL
notes: as for B2
B24: V038 (antibody, V domains shown)
VH: QVQLVQSGAEVKKPGASVKVSCKASGYTFTGYYVHWVRQAPGQGLEWMGWINPNSGGTNFAQRFQGRVTMTRDTSISTAYMELSRLRSDDTAVYYCARGITVYGVAPDAFDIWGQGTMVTVSS
VL: DIQMTQSPSSLSASVGDRVTITCQASQDISNYLNWYQQKPGKAPKVLIYDASNLEPGVPSRFSGSGSGTDFTFTISSLQPEDIATYYCQQYDNLITFGQGTRLEIK
notes: as for B2

molecular target: T1, 417N/484K/501Y RBD mutant (SARS-CoV-2, Wuhan-Hu-1 RBD backbone …, 417N | 484K | 501Y); experiment: BLI; conditions: both partners purified
T1 construct: also called RBD KEN

Binder | Kd
B1 | 139 nM
B2 | 15.6 nM
B3 | 2.79 nM
B4 | 1.99 nM
B5 | 0.241 nM
B6 | 23.3 nM
B7 | 22 nM
B8 | 2.49 nM
B9 | 6.26 nM
B10 | 2.92 nM
B11 | 66.7 nM
B12 | 20.6 nM
B13 | 27.3 nM
B14 | 5.78 nM
B15 | 7.58 nM
B16 | 4.79 nM
B17 | 10.7 nM
B18 | 0.542 nM
B19 | 3.66 nM
B20 | 7.05 nM
B21 | 4.02 nM
B22 | 10.3 nM
B23 | 2.85 nM
B24 | 2.37 nM
